Experimental data: US20180009867A1
pKd: −log10 of the molar value.

Target: IL-1 receptor
Assay: SPR, immobilized IL-1 receptor

| Substance | pKd |
| --- | --- |
| mutant chicken interleukin-1β protein having T117A mutation (ligand) | 9.64 |
| mutant chicken interleukin-1β protein having E118K mutation (ligand) | 9.43 |
| wild-type chicken interleukin-1β (ligand) | 9.92 |
